Patent US20040006018A1 (Genentech, published 2004)
Each block holds one binder with its values, some of them ahead of it.

Key:
[1] = target: T1, Mouse LIF (leukemia inhibitory factor) (mouse, UniProt P09056 24-203); assay: Scatchard analysis of binding to M1 cells, summary over both labeled ligands
[2] = target: T1, Mouse LIF (leukemia inhibitory factor); assay: 0.042 nM 125I-mouse LIF on M1 cells competed by unlabeled LIF, Scatchard, one-site fit
Description: (§1) Shown are competition and Scatchard (insert) plots of the data.

[3] = target: T1, Mouse LIF (leukemia inhibitory factor); assay: 0.047 nM 125I-mouse CT-1 on M1 cells competed by unlabeled LIF, Scatchard, one-site fit
Description: as §1

[4] = target: T1, Mouse LIF (leukemia inhibitory factor); assay: binding of LIF to His-tagged soluble LIF receptor on Ni-NTA agarose
[5] = target: T1, Mouse LIF (leukemia inhibitory factor); assay: competition for 125I-human LIF binding to Hela cells

Kd [1]: ~0.2 nM | Kd [2]: 0.26 nM | Kd [3]: 0.19 nM
B1: Mouse LIF receptor on mouse M1 cells (LIF receptor complex with gp130) (receptor)
chain 1: LKRGVQDLKCTTNNMRVWDCTWPAPLGVSPGTVKDICIKDRFHSCHPLETTNVKIPALSPGDHEVTINYLNGFQSKFTLNEKDVSLIPETPEILDLSADFFTSSLLLKWNDRGSALPHPSNATWEIKVLQNPRTEPVALVLLNTMLSGKDTVQHWNWTSDLPLQCATHSVSIRWHIDSPHFSGYKEWSDWSPLKNISWIRNTETNVFPQDKVVLAGSNMTICCMSPTKVLSGQIGNTLRPLIHLYGQTVAIHILNIPVSENSGTNIIFITDDDVYGTVVFAGYPPDVPQKLSCETHDLKEIICSWNPGRITGLVGPRNTEYTLFESISGKSAVFHRIEGLTNETYRLGVQMHPGQEIHNFTLTGRNPLGQAQSAVVINVTERVAPHDPTSLKVKDINSTVVTFSWYLPGNFTKINLLCQIEICKANSKKEVRNATIRGAEDSTYHVAVDKLNPYTAYTFRVRCSSKTFWKWSRWSDEKRHLTTEATPSKGPDTWREWSSDGKNLIVYWKPLPINEANGKILSYNVSCSLNEETQSVLEIFDPQHRAEIQLSKNDYIISVVARNSAGSSPPSKIASMEIPNDDITVEQAVGLGNRIFLTWRHDPNMTCDYVIKWCNSSRSEPCLLDWRKVPSNSTETVIESDQFQPGVRYNFYLYGCTNQGYQLLRSIIGYVEELAPIVAPNFTVEDTSADSILVKWDDIPVEELRGFLRGYLFYFQKGERDTPKTRSLEPHHSDIKLKNITDISQKTLRIADLQGKTSYHLVLRAYTHGGLGPEKSMFVVTKENSVGLIIAILIPVAVAVIVGVVTSILCYRKREWIKETFYPDIPNPENCKALQFQKSVCEGSNALKTLEMNPCTPNNVEVLESRSIVPKIEDTEIISPVAERPGERSEVDPENHVVVSYCPPIIEEEITNPAADEVGGASQVVYIDVQSMYQPQAKAEEEQDVDPVVVAGYKPQMRLPISPAVEDTAAEDEEGKTAGYRPQANVNTWNLVSPDSPRSTDSNNEVVSFGSPCSINSRQFLIPPKDEDSPKSNGGGWSFTNFFQNKPND
chain 2: QLLEPCGYIYPEFPVVQRGSNFTAICVLKEACLQHYYVNASYIVWKTNHAAVPREQVTVINRTTSSVTFTDVVLPSVQLTCNILSFGQIEQNVYGVTMLSGFPPDKPTNLTCIVNEGKNMLCQWDPGRETYLETNYTLKSEWATEKFPDCQSKHGTSCMVSYMPTYYVNIEVWVEAENALGKVSSESINFDPVDKVKPTPPYNLSVTNSEELSSILKLSWVSSGLGGLLDLKSDIQYRTKDASTWIQVPLEDTMSPRTSFTVQDLKPFTEYVFRIRSIKDSGKGYWSDWSEEASGTTYEDRPSRPPSFWYKTNPSHGQEYRSVRLIWKALPLSEANGKILDYEVILTQSKSVSQTYTVTGTELTVNLTNDRYVASLAARNKVGKSAAAVLTIPSPHVTAAYSVVNLKAFPKDNLLWVEWTPPPKPVSKYILEWCVLSENAPCVEDWQQEDATVNRTHLRGRLLESKCYQITVTPVFATGPGGSESLKAYLKQAAPARGPTVRTKKVGKNEAVLAWDQIPVDDQNGFIRNYSISYRTSVGKEMVVHVDSSHTEYTLSSLSSDTLYMVRMAAYTDEGGKDGPEFTFTTPKFAQGEIEAIVVPVCLAFLLTTLLGVLFCFNKRDLIKKHIWPNVPDPSKSHIAQWSPHTPPRHNFNSKDQMYSDGNFTDVSVVEIEANNKKPCPDDLKSVDLFKKEKVSTEGHSSGIGGSSCMSSSRPSISSNEENESAQSTASTVQYSTVVHSGYRHQVPSVQVFSRSESTQPLLDSEERPEDLQLVDSVDGGDEILPRQPYFKQNCSQPEACPEISHFERSNQVLSGNEEDFVRLKQQQVSDHISQPYGSEQRRLFQEGSTADALGTGADGQMERFESVGMETTIDEEIPKSYLPQTVRQGGYMPQ
notes: whole, on cells; Endogenous receptor on M1 cells; also called LIFRβ

Kd [4]: 1.5 nM
B2: Soluble mouse LIF receptor (extracellular domain, amino acids 1-826, with a C-terminal tag of 6 histidine residues) (receptor)
chain: LKRGVQDLKCTTNNMRVWDCTWPAPLGVSPGTVKDICIKDRFHSCHPLETTNVKIPALSPGDHEVTINYLNGFQSKFTLNEKDVSLIPETPEILDLSADFFTSSLLLKWNDRGSALPHPSNATWEIKVLQNPRTEPVALVLLNTMLSGKDTVQHWNWTSDLPLQCATHSVSIRWHIDSPHFSGYKEWSDWSPLKNISWIRNTETNVFPQDKVVLAGSNMTICCMSPTKVLSGQIGNTLRPLIHLYGQTVAIHILNIPVSENSGTNIIFITDDDVYGTVVFAGYPPDVPQKLSCETHDLKEIICSWNPGRITGLVGPRNTEYTLFESISGKSAVFHRIEGLTNETYRLGVQMHPGQEIHNFTLTGRNPLGQAQSAVVINVTERVAPHDPTSLKVKDINSTVVTFSWYLPGNFTKINLLCQIEICKANSKKEVRNATIRGAEDSTYHVAVDKLNPYTAYTFRVRCSSKTFWKWSRWSDEKRHLTTEATPSKGPDTWREWSSDGKNLIVYWKPLPINEANGKILSYNVSCSLNEETQSVLEIFDPQHRAEIQLSKNDYIISVVARNSAGSSPPSKIASMEIPNDDITVEQAVGLGNRIFLTWRHDPNMTCDYVIKWCNSSRSEPCLLDWRKVPSNSTETVIESDQFQPGVRYNFYLYGCTNQGYQLLRSIIGYVEELAPIVAPNFTVEDTSADSILVKWDDIPVEELRGFLRGYLFYFQKGERDTPKTRSLEPHHSDIKLKNITDISQKTLRIADLQGKTSYHLVLRAYTHGGLGPEKSMFVVTKEHHHHHH
notes: range 44-826; Expressed in human 293 cells, purified on Ni-NTA agarose; single band of 120 kDa; also called smLIFR; soluble LIF receptor

binding result [5]: no binding
B3: Human LIF receptor on human Hela cells (receptor)
chain: QKKGAPHDLKCVTNNLQVWNCSWKAPSGTGRGTDYEVCIENRSRSCYQLEKTSIKIPALSHGDYEITINSLHDFGSSTSKFTLNEQNVSLIPDTPEILNLSADFSTSTLYLKWNDRGSVFPHRSNVIWEIKVLRKESMELVKLVTHNTTLNGKDTLHHWSWASDMPLECAIHFVEIRCYIDNLHFSGLEEWSDWSPVKNISWIPDSQTKVFPQDKVILVGSDITFCCVSQEKVLSALIGHTNCPLIHLDGENVAIKIRNISVSASSGTNVVFTTEDNIFGTVIFAGYPPDTPQQLNCETHDLKEIICSWNPGRVTALVGPRATSYTLVESFSGKYVRLKRAEAPTNESYQLLFQMLPNQEIYNFTLNAHNPLGRSQSTILVNITEKVYPHTPTSFKVKDINSTAVKLSWHLPGNFAKINFLCEIEIKKSNSVQEQRNVTIKGVENSSYLVALDKLNPYTLYTFRIRCSTETFWKWSKWSNKKQHLTTEASPSKGPDTWREWSSDGKNLIIYWKPLPINEANGKILSYNVSCSSDEETQSLSEIPDPQHKAEIRLDKNDYIISVVAKNSVGSSPPSKIASMEIPNDDLKIEQVVGMGKGILLTWHYDPNMTCDYVIKWCNSSRSEPCLMDWRKVPSNSTETVIESDEFRPGIRYNFFLYGCRNQGYQLLRSMIGYIEELAPIVAPNFTVEDTSADSILVKWEDIPVEELRGFLRGYLFYFGKGERDTSKMRVLESGRSDIKVKNITDISQKTLRIADLQGKTSYHLVLRAYTDGGVGPEKSMYVVTKENSVGLIIAILIPVAVAVIVGVVTSILCYRKREWIKETFYPDIPNPENCKALQFQKSVCEGSSALKTLEMNPCTPNNVEVLETRSAFPKIEDTEIISPVAERPEDRSDAEPENHVVVSYCPPIIEEEIPNPAADEAGGTAQVIYIDVQSMYQPQAKPEEEQENDPVGGAGYKPQMHLPINSTVEDIAAEEDLDKTAGYRPQANVNTWNLVSPDSPRSIDSNSEIVSFGSPCSINSRQFLIPPKDEDSPKSNGGGWSFTNFFQNKPND
notes: whole, on cells; Endogenous receptor on cells; other subunits (gp130) not examined on these cells
